Substitutions are numbered along the chain they refer to. Where two headings read alike, the source gives them in different places.
Assays:
Kvβ2:Y90F = target: T1, Kvβ2:Y90F (Rattus norvegicus, UniProt P62483, Y90F); test: intrinsic fluorescence titration; type: binding
T1 sequence (P62483 39-367 Y90F): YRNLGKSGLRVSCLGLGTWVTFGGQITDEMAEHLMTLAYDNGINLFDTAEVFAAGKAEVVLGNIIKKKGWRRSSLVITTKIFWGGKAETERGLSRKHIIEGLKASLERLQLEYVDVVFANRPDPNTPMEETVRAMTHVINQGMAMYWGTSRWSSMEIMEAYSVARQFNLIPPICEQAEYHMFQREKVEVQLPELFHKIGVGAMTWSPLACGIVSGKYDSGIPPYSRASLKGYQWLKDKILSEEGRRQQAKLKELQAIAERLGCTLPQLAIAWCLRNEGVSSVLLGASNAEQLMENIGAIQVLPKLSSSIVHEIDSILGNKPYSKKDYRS

[1] = target: T2, Kvβ2 (β-subunit of the voltage-gated potassium channel) (Rattus norvegicus, UniProt P62483); test: intrinsic fluorescence titration; type: binding
T2 sequence (P62483 39-367): T1 sequence (P62483 39-367 Y90F) with F52Y

[2] = target: T2, Kvβ2 (β-subunit of the voltage-gated potassium channel); test: NADPH oxidation, specific activity at […]; type: biochemical
[3] = target: T2, Kvβ2 (β-subunit of the voltage-gated potassium channel); test: NADPH oxidation, specific activity at […]; type: biochemical; remark: listed apart in the source
[4] = tested on: O=C1C(=O)c2ccccc2-c2ccccc21; test: steady-state NADPH oxidation kinetics; type: biochemical, Rattus norvegicus
[5] = substrate: CC(=O)C=O; test: steady-state NADPH oxidation kinetics; type: biochemical, Rattus norvegicus; details: NADPH
[6] = substrate: CC(=O)c1ccc([N+](=O)[O-])cc1; test: steady-state NADPH oxidation kinetics; type: biochemical, Rattus norvegicus; details: NADPH active site, Tyr-90 acid-base catalyst
purified protein = substrate: O=Cc1ccc([N+](=O)[O-])cc1; test: purified protein; details: NADPH active site, Tyr-90 acid-base catalyst; binds after NADPH

Q: Which results are given for NC(=O)C1=CN([C@@H]2O[C@H](COP(=O)(O)OP(=O)(O)OC[C@H]3O[C@@H](n4cnc5c(N)ncnc54)[C@H](OP(=O)(O)O)[C@@H]3O)[C@@H](O)[C@H]2O)C=CC1 [NADPH]?
A: Kd (Kvβ2:Y90F): 130 ± 11 nM; Kd [1]: 200 ± 5 nM

Q: How did the “Specific activity” value [2] turn out when CCCCC/C=C\CC(=O)/C=C/C=C\C/C=C\CCCC(=O)O [12-oxoETE] was run?
A: Its value is 0.044 ± 0.007 min⁻¹.

Q: CCCCC[C@H](O)/C=C/[C@H]1C(=O)C=C[C@@H]1C/C=C\CCCC(=O)O [PGJ2] was tested. Which “Specific activity” value [3] did it give?
A: The value was 0.086 ± 0.019 min⁻¹.

Q: How did the Km [4] turn out when “Kvβ2 (β-subunit of the voltage-gated potassium channel) (Rattus norvegicus)” was run?
A: Its Km is 240 ± 140 µM.

B1: Kvβ2 (β-subunit of the voltage-gated potassium channel) (Rattus norvegicus) (protein)
chain: T1 sequence (P62483 39-367 Y90F) with F52Y
Q: Which results are given for B1?
A: Km [5]: 12000 ± 1000 µM; Km [6]: 209 ± 49 µM; kcat [6]: 0.00153 ± 0.0001 s⁻¹; kcat/Km [6]: 7.67 ± 1.5 M⁻¹ s⁻¹; Km (purified protein): 283 ± 31 µM; kcat (purified protein): 0.00267 s⁻¹; kcat/Km (purified protein): 9.83 M⁻¹ s⁻¹

Reference: publication PMC2603305 (Biochemistry, 2008)
